Experiments:
EFT-400 tissues [1] = assay: Sunburned cell counts in UV-irradiated EpiDerm-FT (EFT-400) skin model tissues, H&E histology; format: cell-based, human; conditions: for sunburned cell formation: 200 mJ/cm2 UVB/29.94 mW/cm2 UVA, 24 hour post irradiation
Protocol: Packaged tissues were stored at 4° C. overnight and then re-equilibrated in EFT-400-ASY medium overnight prior to the start of experiments. The sample size was n=3 for each treatment group in the gene expression experiments; and n=6 (two independent experiments of n=3) for the sunburned cell counts.
Treated and untreated tissues were exposed to UV irradiation with 200 mJ/cm^2UVB/29.94 mW/cm^2UVA simulated solar UV light (Honle-500 solar lamp).
At the conclusion of the 24 hour post-irradiation period, EFT-400 tissues were fixed in 10% formalin for 2 hours at room temperature (two independent experiments with n=3). Formalin fixed tissues were embedded in paraffin and 6 micron slices were stained with haematoxylin and eosin (H&E).

EFT-400 tissues [2] = assay: Gene expression by quantitative PCR custom array in EFT-400 tissues with or without UV irradiation; conditions: for AVG Ct ACTB (housekeeping gene) / AVG Ct AQP3 / AVG Ct BCL2L1 / AVG Ct COL1A1 / AVG Ct COL4A2 / AVG Ct COL5A1 / AVG Ct COL6A1 / AVG Ct COL6A2 / AVG Ct COL7A1 / AVG Ct COL8A1 / AVG Ct COL11A1 / AVG Ct COL12A1 / AVG Ct COL14A1 / AVG Ct COL15A1 / AVG Ct COL16A1 / AVG Ct DSG1 / AVG Ct ERCC1 / AVG Ct FN1 / AVG Ct GAPDH (housekeeping gene) / AVG Ct GDF15 / AVG Ct GSTM3 / AVG Ct HSPA8 / AVG Ct IL1A / AVG Ct IL1B / AVG Ct IL8 / AVG Ct KAL1 / AVG Ct KRT16 / AVG Ct LAMA1 / AVG Ct LAMA2 / AVG Ct LAMA3 / AVG Ct LAMA5 / AVG Ct LAMB1 / AVG Ct LAMB3 / AVG Ct LAMC1 / AVG Ct MMP1 / AVG Ct MMP2 / AVG Ct MT2A / AVG Ct PCNA / AVG Ct RPL13A (housekeeping gene) / AVG Ct SIRT1 / AVG Ct TGFBI / AVG Ct THBS3 / AVG Ct TNC / AVG Ct VTN: No UV
Protocol: EpiDerm-FT™ (EFT-400) tissues were produced and packaged in the MatTek Corporation GMP tissue culture production laboratories following standard procedures. Packaged tissues were stored at 4° C. overnight and then re-equilibrated in EFT-400-ASY medium overnight prior to the start of experiments. The sample size was n=3 for each treatment group in the gene expression experiments; and n=6 (two independent experiments of n=3) for the sunburned cell counts.
Total RNA was isolated from the EFT-400 tissues (RNAqueous kit, Ambion) (n=3) and utilized for gene expression analysis by quantitative PCR on an SABioscience custom array containing 42 Human Extracellular Matrix (ECM) and Adhesion Molecules RT^2 Profiler™ PCR Array, stress and toxicity genes whose expression, based on MatTek data, are known to be dramatically altered by UV-protective compounds on UV damaged skin. […] Further, there were three internal control spots on the array that corresponded to human genomic DNA contamination (HGDC), positive PCR control (PPC), and reverse transcription control (RTC).

B1: Nell 1: Full-length human recombinant NELL1 protein (isoform 1, SEQ ID NO: 2), expressed in a wheat germ cell-free translation system, obtained from Abnova (protein, listed as Homo sapiens)
chain: MPMDLILVVWFCVCTARTVVGFGMDPDLQMDIVTELDLVNTTLGVAQVSGMHNASKAFLFQDIEREIHAAPHVSEKLIQLFRNKSEFTILATVQQKPSTSGVILSIRELEHSYFELESSGLRDEIRYHYIHNGKPRTEALPYRMADGQWHKVALSVSASHLLLHVDCNRIYERVIDPPDTNLPPGINLWLGQRNQKHGLFKGIIQDGKIIFMPNGYITQCPNLNHTCPTCSDFLSLVQGIMDLQELLAKMTAKLNYAETRLSQLENCHCEKTCQVSGLLYRDQDSWVDGDHCRNCTCKSGAVECRRMSCPPLNCSPDSLPVHIAGQCCKVCRPKCIYGGKVLAEGQRILTKSCRECRGGVLVKITEMCPPLNCSEKDHILPENQCCRVCRGHNFCAEGPKCGENSECKNWNTKATCECKSGYISVQGDSAYCEDIDECAAKMHYCHANTVCVNLPGLYRCDCVPGYIRVDDFSCTEHDECGSGQHNCDENAICTNTVQGHSCTCKPGYVGNGTICRAFCEEGCRYGGTCVAPNKCVCPSGFTGSHCEKDIDECSEGIIECHNHSRCVNLPGWYHCECRSGFHDDGTYSLSGESCIDIDECALRTHTCWNDSACINLAGGFDCLCPSGPSCSGDCPHEGGLKHNGQVWTLKEDRCSVCSCKDGKIFCRRTACDCQNPSADLFCCPECDTRVTSQCLDQNGHKLYRSGDNWTHSCQQCRCLEGEVDCWPLTCPNLSCEYTAILEGECCPRCVSDPCLADNITYDIRKTCLDSYGVSRLSGSVWTMAGSPCTTCKCKNGRVCCSVDFECLQNN
sunburned cell formation (EFT-400 tissues [1]; 100 ng/ml): decrease in sunburned cell formation
sunburned cell formation (EFT-400 tissues [1]; 150 ng/ml): did not decrease sunburned cell formation to the same extent as 100 ng/ml NELL1
number of sunburned cells as compared to UV-only controls (EFT-400 tissues [1]; pre-treatment 30 minutes prior to UV, continued 24 hours post-irradiation): statistically significant reduction in the number of sunburned cells
activity in producing the observed effects (sunburned cells, gene expression) (EFT-400 tissues [2]; NELL1 protein at 100 ng/ml, genistein at 50 μM): most active in producing the observed effects
AVG Ct ACTB (housekeeping gene) (EFT-400 tissues [2]; 100 ng/ml Nell 1): 18
AVG Ct AQP3 (EFT-400 tissues [2]; 100 ng/ml Nell 1): 23.05
AVG Ct BCL2L1 (EFT-400 tissues [2]; 100 ng/ml Nell 1): 24.03
AVG Ct COL1A1 (EFT-400 tissues [2]; 100 ng/ml Nell 1): 17.82
AVG Ct COL4A2 (EFT-400 tissues [2]; 100 ng/ml Nell 1): 22.01
AVG Ct COL5A1 (EFT-400 tissues [2]; 100 ng/ml Nell 1): 22.36
AVG Ct COL6A1 (EFT-400 tissues [2]; 100 ng/ml Nell 1): 18.82
AVG Ct COL6A2 (EFT-400 tissues [2]; 100 ng/ml Nell 1): 19.33
AVG Ct COL7A1 (EFT-400 tissues [2]; 100 ng/ml Nell 1): 25.75
AVG Ct COL8A1 (EFT-400 tissues [2]; 100 ng/ml Nell 1): 27.28
AVG Ct COL11A1 (EFT-400 tissues [2]; 100 ng/ml Nell 1): 26.77
AVG Ct COL12A1 (EFT-400 tissues [2]; 100 ng/ml Nell 1): 24.14
AVG Ct COL14A1 (EFT-400 tissues [2]; 100 ng/ml Nell 1): 25.88
AVG Ct COL15A1 (EFT-400 tissues [2]; 100 ng/ml Nell 1): 24.72
AVG Ct COL16A1 (EFT-400 tissues [2]; 100 ng/ml Nell 1): 23.78
AVG Ct DSG1 (EFT-400 tissues [2]; 100 ng/ml Nell 1): 20.11
AVG Ct ERCC1 (EFT-400 tissues [2]; 100 ng/ml Nell 1): 23.72
AVG Ct FN1 (EFT-400 tissues [2]; 100 ng/ml Nell 1): 20.04
AVG Ct GAPDH (housekeeping gene) (EFT-400 tissues [2]; 100 ng/ml Nell 1): 17.83
AVG Ct GDF15 (EFT-400 tissues [2]; 100 ng/ml Nell 1): 23.37
AVG Ct GSTM3 (EFT-400 tissues [2]; 100 ng/ml Nell 1): 29.11
AVG Ct HSPA8 (EFT-400 tissues [2]; 100 ng/ml Nell 1): 19.83
AVG Ct IL1A (EFT-400 tissues [2]; 100 ng/ml Nell 1): 25.17
AVG Ct IL1B (EFT-400 tissues [2]; 100 ng/ml Nell 1): 28.25
AVG Ct IL8 (EFT-400 tissues [2]; 100 ng/ml Nell 1): 20.41
AVG Ct KAL1 (EFT-400 tissues [2]; 100 ng/ml Nell 1): 31.6
AVG Ct KRT16 (EFT-400 tissues [2]; 100 ng/ml Nell 1): 16.15
AVG Ct LAMA1 (EFT-400 tissues [2]; 100 ng/ml Nell 1): 28.71
AVG Ct LAMA2 (EFT-400 tissues [2]; 100 ng/ml Nell 1): 24.38
AVG Ct LAMA3 (EFT-400 tissues [2]; 100 ng/ml Nell 1): 23.37
AVG Ct LAMA5 (EFT-400 tissues [2]; 100 ng/ml Nell 1): 26.73
AVG Ct LAMB1 (EFT-400 tissues [2]; 100 ng/ml Nell 1): 22.69
AVG Ct LAMB3 (EFT-400 tissues [2]; 100 ng/ml Nell 1): 24.73
AVG Ct LAMC1 (EFT-400 tissues [2]; 100 ng/ml Nell 1): 22.76
AVG Ct MMP1 (EFT-400 tissues [2]; 100 ng/ml Nell 1): 20.04
AVG Ct MMP2 (EFT-400 tissues [2]; 100 ng/ml Nell 1): 18.98
AVG Ct MT2A (EFT-400 tissues [2]; 100 ng/ml Nell 1): 18.43
AVG Ct PCNA (EFT-400 tissues [2]; 100 ng/ml Nell 1): 23.56
AVG Ct RPL13A (housekeeping gene) (EFT-400 tissues [2]; 100 ng/ml Nell 1): 20.37
AVG Ct SIRT1 (EFT-400 tissues [2]; 100 ng/ml Nell 1): 25.93
AVG Ct TGFBI (EFT-400 tissues [2]; 100 ng/ml Nell 1): 21.73
AVG Ct THBS3 (EFT-400 tissues [2]; 100 ng/ml Nell 1): 28.69
AVG Ct TNC (EFT-400 tissues [2]; 100 ng/ml Nell 1): 21.22
AVG Ct VTN (EFT-400 tissues [2]; 100 ng/ml Nell 1): 32.48
AVG Ct ACTB (housekeeping gene) (EFT-400 tissues [2]; 150 ng/ml Nell 1): 18.54
AVG Ct AQP3 (EFT-400 tissues [2]; 150 ng/ml Nell 1): 23.74
AVG Ct BCL2L1 (EFT-400 tissues [2]; 150 ng/ml Nell 1): 24.48
AVG Ct COL1A1 (EFT-400 tissues [2]; 150 ng/ml Nell 1): 18.8
AVG Ct COL4A2 (EFT-400 tissues [2]; 150 ng/ml Nell 1): 22.92
AVG Ct COL5A1 (EFT-400 tissues [2]; 150 ng/ml Nell 1): 23.36
AVG Ct COL6A1 (EFT-400 tissues [2]; 150 ng/ml Nell 1): 19.6
AVG Ct COL6A2 (EFT-400 tissues [2]; 150 ng/ml Nell 1): 20.05
AVG Ct COL7A1 (EFT-400 tissues [2]; 150 ng/ml Nell 1): 26.73
AVG Ct COL8A1 (EFT-400 tissues [2]; 150 ng/ml Nell 1): 28.22
AVG Ct COL11A1 (EFT-400 tissues [2]; 150 ng/ml Nell 1): 27.51
AVG Ct COL12A1 (EFT-400 tissues [2]; 150 ng/ml Nell 1): 25
AVG Ct COL14A1 (EFT-400 tissues [2]; 150 ng/ml Nell 1): 26.52
AVG Ct COL15A1 (EFT-400 tissues [2]; 150 ng/ml Nell 1): 25.35
AVG Ct COL16A1 (EFT-400 tissues [2]; 150 ng/ml Nell 1): 24.55
AVG Ct DSG1 (EFT-400 tissues [2]; 150 ng/ml Nell 1): 20.36
AVG Ct ERCC1 (EFT-400 tissues [2]; 150 ng/ml Nell 1): 24.07
AVG Ct FN1 (EFT-400 tissues [2]; 150 ng/ml Nell 1): 20.71
AVG Ct GAPDH (housekeeping gene) (EFT-400 tissues [2]; 150 ng/ml Nell 1): 18.02
AVG Ct GDF15 (EFT-400 tissues [2]; 150 ng/ml Nell 1): 23.97
AVG Ct GSTM3 (EFT-400 tissues [2]; 150 ng/ml Nell 1): 29.74
AVG Ct HSPA8 (EFT-400 tissues [2]; 150 ng/ml Nell 1): 20.36
AVG Ct IL1A (EFT-400 tissues [2]; 150 ng/ml Nell 1): 25.55
AVG Ct IL1B (EFT-400 tissues [2]; 150 ng/ml Nell 1): 29.2
AVG Ct IL8 (EFT-400 tissues [2]; 150 ng/ml Nell 1): 21.04
AVG Ct KAL1 (EFT-400 tissues [2]; 150 ng/ml Nell 1): 33.03
AVG Ct KRT16 (EFT-400 tissues [2]; 150 ng/ml Nell 1): 16.49
AVG Ct LAMA1 (EFT-400 tissues [2]; 150 ng/ml Nell 1): 29.76
AVG Ct LAMA2 (EFT-400 tissues [2]; 150 ng/ml Nell 1): 25.3
AVG Ct LAMA3 (EFT-400 tissues [2]; 150 ng/ml Nell 1): 24.15
AVG Ct LAMA5 (EFT-400 tissues [2]; 150 ng/ml Nell 1): 27.41
AVG Ct LAMB1 (EFT-400 tissues [2]; 150 ng/ml Nell 1): 23.44
AVG Ct LAMB3 (EFT-400 tissues [2]; 150 ng/ml Nell 1): 25.42
AVG Ct LAMC1 (EFT-400 tissues [2]; 150 ng/ml Nell 1): 23.62
AVG Ct MMP1 (EFT-400 tissues [2]; 150 ng/ml Nell 1): 20.75
AVG Ct MMP2 (EFT-400 tissues [2]; 150 ng/ml Nell 1): 19.62
AVG Ct MT2A (EFT-400 tissues [2]; 150 ng/ml Nell 1): 18.83
AVG Ct PCNA (EFT-400 tissues [2]; 150 ng/ml Nell 1): 24.11
AVG Ct RPL13A (housekeeping gene) (EFT-400 tissues [2]; 150 ng/ml Nell 1): 20.81
AVG Ct SIRT1 (EFT-400 tissues [2]; 150 ng/ml Nell 1): 26.67
AVG Ct TGFBI (EFT-400 tissues [2]; 150 ng/ml Nell 1): 22.16
AVG Ct THBS3 (EFT-400 tissues [2]; 150 ng/ml Nell 1): 29.23
AVG Ct TNC (EFT-400 tissues [2]; 150 ng/ml Nell 1): 22.04
AVG Ct VTN (EFT-400 tissues [2]; 150 ng/ml Nell 1): 32.57
expression of IL-1β elevated after UV exposure (EFT-400 tissues [2]; UV-irradiated): decrease in the expression
expression of IL-8 elevated after UV exposure (EFT-400 tissues [2]; UV-irradiated): decrease in the expression
expression of MMP-1 elevated after UV exposure (EFT-400 tissues [2]; UV-irradiated): decrease in the expression
levels of AQP3 RNA after UV exposure (EFT-400 tissues [2]; UV-irradiated): increased these levels further
UV-elevated levels of AQP3 (EFT-400 tissues [2]; UV-irradiated, 100 ng/ml): further increased the UV-elevated levels of AQP3
